Laboratory results from article PMC4577212, “X-Ray Structure and Mutagenesis Studies of the N-Isopropylammelide Isopropylaminohydrolase, AtzC” (PLoS ONE, 2015).

B1: N-isopropylammelide isopropylaminohydrolase AtzC from Pseudomonas sp. strain ADP, His-tagged (enzyme, UniProt O52063 1-403, looked up)
chain: MSKDFDLIIRNAYLSEKDSVYDIGIVGDRIIKIEAKIEGTVKDEIDAKGNLVSPGFVDAHTHMDKSFTSTGERLPKFWSRPYTRDAAIEDGLKYYKNATHEEIKRHVIEHAHMQVLHGTLYTRTHVDVDSVAKTKAVEAVLEAKEELKDLIDIQVVAFAQSGFFVDLESESLIRKSLDMGCDLVGGVDPATRENNVEGSLDLCFKLAKEYDVDIDYHIHDIGTVGVYSINRLAQKTIENGYKGRVTTSHAWCFADAPSEWLDEAIPLYKDSGMKFVTCFSSTPPTMPVIKLLEAGINLGCASDNIRDFWVPFGNGDMVQGALIETQRLELKTNRDLGLIWKMITSEGARVLGIEKNYGIEVGKKADLVVLNSLSPQWAIIDQAKRLCVIKNGRIIVKDEVIVA
notes: AtzC, N-isopropylammelide isopropylaminohydrolase (E.C. 3.5.99.4), Pseudomonas sp. strain ADP; The tag carries a thrombin site; also called wild-type AtzC; tagged AtzC protein; source: E. coli BL21 (λDE3), purified (Ni-NTA, Superdex 200 SEC); not shown: His-tag, N-terminal, kept
B2: N-isopropylammelide isopropylaminohydrolase AtzC from Pseudomonas sp. strain ADP, thrombin-treated (His-tag removed) (enzyme, UniProt O52063 1-403, looked up)
chain: B1 chain
notes: AtzC, N-isopropylammelide isopropylaminohydrolase (E.C. 3.5.99.4), Pseudomonas sp. strain ADP; unmodified atzC gene (GenBank U66917.2) in pETCC2; tag removed by thrombin in the crystallisation sample without further purification; One Zn2+ ion per monomer; malonate in the active site of the crystal; also called WT; native protein; source: E. coli BL21 (λDE3), purified (Ni-NTA, Superdex 200 SEC), …

Key:
[1] = molecular target: the molecule itself; experiment: SEC; Superdex 200 prep-grade, 130 mL column, 50 mM TRIS pH 7.5, 100 mM NaCl; native molecular mass of ~210 kDa
[2] = molecular target: the molecule itself; experiment: crystal structure; thrombin-treated protein, 2.4 M sodium malonate pH 7; space group C2, half of the tetramer in the asymmetric unit; 1.84 Å; oligomer assessed with PISA

| Protein | stoichiometry N [1] | stoichiometry N [2] |
| --- | --- | --- |
| B1 | 4 | – |
| B2 | – | 4 |
